Experimental findings from the domain aggregation screens of Martell et al. (2025) are described below.
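Further: 20 min heating vs room temperature control held 20 min.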

This data set can be described thus: soluble fraction after stress (log2 fold change); higher = more stays soluble; pooled small domains, quantitative proteomics. The following applies: stress: 75 degC.
For “HMTEEPISDGIKKLVEEWENIEGNLIMIFHGIQKHYGYVPRNVAKYVSEAIDVPLTRIYEILTFYNYFTM”, the “soluble fraction (log2)” value was 0.261.
The result for “HMTEEYAVLWRVARQTLKPEAFDVLWMKYREQLSIAEIAGIMNRSETSVKVMLHRARKNLGTALESS” reads -1.75.
Regarding “HMTEKIEWYKEVLELEPNSKVFFPLARMLAEEQRFDEAVAVLEHGLERHGEFLEARLFFIELLHET”, the “soluble fraction (log2)” value is -3.16.
Turning to “HMTEKQYIYSIGDRVNIGTDEFEIVNINEKEVSIADVTFPMLVKQISYEEFDRKVKENPFNDHLII”, the “soluble fraction (log2)” value is -0.112.
Consider “HMTEKSTRSVPQEHEGKRLDVAAALLFPVYSRSELARRIDAGYLLLNGKGSTPKTKVHELDLIELLEV”, for which the “soluble fraction (log2)” value was -0.601.
As for “HMTELKKTAVDTWVKDLGTEQALAKLDTLAVVKLRRLAREYKAFGIAGRAISKADKGMLLAEFRAYYEN”, the figure is -2.08.
The result for “HMTETSKLTDAKQLLESILSSGEVSYKDIISAAEEYEIGKRTLMSAKALLSIESIKKTDGWYWTLPH” reads -0.368; that for “HMTEVPSLSSLKIGDLIFYRNNKGAIAHSAIITSFYNGRPFISQHTFNALNITYVKDWASKMHFIKIW”, 0.0528; that for “HMTEWDDATVKDAVEYFMSVNGRVPTVTDFKKENGLPSHPVIKQRYKINLHEWLNKNFPTYY”, -1.3.
On to “HMTFEPVYDENSRILILGTFPSVKSREQQFYYGHPQNRFWKLLAALTGWKVPKTISEKKELLLQNGIA”, for which the “soluble fraction (log2)” value was -0.208.
As for “HMTFFDDLLYQAKAAVDNDPSIKPSLHNRAIIEILYQQGVFNMKNAVEHVAELLEISKNTVYLHLRSVKG”, the figure is -1.06.
The result for “HMTFGEMLQYTNRLKEILESNAPQSIKDRRLANLMTDLEQAYGIPILRDQEFEKENPFLMQLYRTIS” reads -2.4; that for “HMTFKDIMENYTISRIENTINSAVVFLDEINAYITIDKTQLPSNLRYDTDSKIMASQIPDDAKIKYFMIYW”, -2.12.
As for “HMTFPIDINRADTEQLTALPGIGEVLAKRIIAYREENGSFLSTDELKNVEGIGEKRLEAIVDLITIG”, the figure is 0.145; as for “HMTFSDKIRELRKQKGVSQAVVAEYLGITKQAYSLYETGKREPDFDSLLKLAEYFGTDTDSLLY”, -1.52.
Consider “HMTGEEVLIMLGEKMKLIRNYNGYSQRQIAEILKIERSTYASYETGRNRPDIFAVQRFAKIFNVSVDYIL”, for which the “soluble fraction (log2)” value was -0.244.
As for “HMTGELEVTAAGLSPEKLLNLAAKNHITLSNVKRLSYTQLSFRIGPADYNRLKKLLPEGRYKLNVGSS”, the figure is -2.28; as for “HMTGESIPFSKFLSEVDSGRVINVEIQGNNISGLLSDGNKFKTYSPNYPNLVEILSEKEVSIVATPLE”, 0.0122.
As for “HMTGGLTQEQISQLRMLTPQQIEQLRQLQPQQVEMLRQLRPEQVMLLTQLEPQQIMAFMRLEPSVIMQL”, the figure is -0.261; as for “HMTGGMVTYIIEKGEGFFSLERKFGLSENELIKLNPSLKSGLKSEMQINIPKENYDRYVASS”, -0.45.
Regarding “HMTGIESVKPSSDFTVEGNRIVAGDAEVEVYDLAGRKVNNNNLTTGVYIAKIAGSAESVKVFV”, the “soluble fraction (log2)” value amounted to 0.144.
The result for “HMTGIQDVPALETRRVGNTFFFDRATDVQVYDLQGRLLQQARKVTSVSIGHLQQGVYVLTDGRASVKVQ” reads -1.51.
As for “HMTGIQLNDRERAILQHLSDGLTTKAIAERIFLREDTVKWYRKNLLARFEQPIVAALVKWAVLEGLV”, the figure is 0.0483; as for “HMTGIVVVDVVGQVGRPGLVSLPAGSRVADAITAAGGATPEADVSLLNQARLVIDGEQIRVPRPGEVIAA”, -0.0555; as for “HMTGKVSHGERKSVLVSLAGSMRARGMSIDAVRAGLYADNEKRFDPPLDERDIEDVLNSAKKWGDP”, -0.352.
As for “HMTGMDALIGRRVFVSEEILPGDAGGRVAVDGDSWRAISVGTAKPIPAGTEVRIHGYKSLILEVEPI”, the figure is -0.788; as for “HMTGQHFDLEDTDGNLVYEIDSTVPLKTFYIYDAMHTEIFRMTKELLHALPTYRFYLYGEPYGVLKKQ”, -0.192; as for “HMTGRVKWYDATKGFGFVTSDEGGDVFLPKGALPAGVADLKTGQRIEFGVVDSRKGAQALGVK”, 0.352.
“HMTGSAETRGITLTDEQVTVWAKDGSWANYVYRATDGNWYDGSGRLYYENGGGEWTQAATGEQGS”: the “soluble fraction (log2)” value came out at 0.126.
“HMTGSALDATIEKLLDLGSKAGSVTEDEIQIVLKNVDVTDAQLSSIYQFLRDRGVEIVSATEDDD”: the “soluble fraction (log2)” value amounted to 0.371.
The result for “HMTGVPYLVRVKITDLHIRSGPGTNYASKGFIAPGAYTIVEESTGQGAALWGKLKSGKGWIALGYTEK” reads -2.13; that for “HMTHAISKTYAVTGEQLKNGFTLTHTFANGSTRRVDVYPGSRSGKVIAVRNTTDDTTEWIRIVEG”, -0.2; that for “HMTHSEYVGRHGIAATSLRPAGAATIDGSRVDVVTSGEYIEKGTPIEVMTVNGSTVRVKAVPQIP”, 0.203.
As for “HMTIDANAIEKMVLDLIGEHPNEWGRYRDGDKKVQGFFVGQIMKATSGQADGKIVNQILSQHAEA”, the figure is -0.0337; as for “HMTIELAEGQHFLQISKSGAPMGNVVRDLIIQTLKITNGNQIKAAKILGISRAKLRYRIEQLGINITGKNI”, -2.81.
As for “HMTIERVKIKETPTGWLRVRETPDNNGSEIGRANVGEIYELLGSKGEWYHIVYKGKQGFISTKYAEKVL”, the figure is -0.999.
On to “HMTIGEALLNLRKQLGLNQTEMAANVVSTSFYSKVERNIHDIGTKDLLQILNKHQINATYFFENLN”, for which the “soluble fraction (log2)” value was -1.82.
The result for “HMTIHVMEIKSLLPIKILDESQHLVQSFSSKNPTSYNYRLIFSDKSKLENIKKTINENKDVESIEIRYA” reads -0.885.
As for “HMTILTSSQRKALISKMIRQGGVESQSHLVKLLAREGVKVTQATASRDLEDLGATRVRDANGEFQYVIP”, the figure is -1.16; as for “HMTINQIDPASGRKVGYWIITGEMKPKEGFSPDNKIEEGIYVNSRKSGKWIKYWPNGNVRSEIIYKNGR”, -0.677.
“HMTITPEVIVNHFKNLDLFFTKNGNYYEFKKKGTENILFKYGIYKQKPNIFVKIQRYPISSLSDLERIPI”: the “soluble fraction (log2)” value is -1.53.
As for “HMTIYLSENIKRLRLEKELTQETLSEFLGVTSQSVSNWERGESYPDITMLPEIADFFKVSVDELLGVNRAE”, the figure is -2.26; as for “HMTIYPFNPNYLKDYQAYRVGLSLKEIDALLDFRSSGQWINSAEDFQRITGVSDSVLEQLIPYFKFS”, -2.98; as for “HMTKASYKITTPSGVNVREGAGKRYAVRKAYPKGKTVTVTQTKEVNGNLWGKTSDGWFAIKYQGAVYASA”, -1.39.
As for “HMTKDEFLTTLRTLIQDMPPEDRRDVMNYYTEYFEDAGPEREQEVLRQLGSPEQVAREVLGG”, the figure is -0.0428; as for “HMTKDVIEIVDGNKFVFHKTIATDSVSSVINKYHISEADFRTWNELTGDMKVGEEYIVQLSLH”, -0.87; as for “HMTKKFQIQTLDKLNVRKVADWNASAVTTVKKGQILDVVAEVSPKNGSTKMYKLESGLYITASEKYVKKQG”, -1.65.
As for “HMTKLPLLVELSRIIPTDTWVKKIKFSLGSVEFVGISKSASRLLPIVENSSYFHDTKFIGTIVT”, the figure is -0.547.
Take “HMTKNIIVTTSVKTSDELVEVAKNHALNLELDFNYRNKKTIKELLSSFDGLVVIYKNKISYFEDNSELF”: the “soluble fraction (log2)” value amounted to 0.335.
As for “HMTKQDYLTALQQELNKNAVADAEDIVSEYEQHFQFKLADGFTEEEIAAKLGAPAQIALQFAG”, the “soluble fraction (log2)” value is 0.826.
As for “HMTKQRSIILDLLKANQDRHLTAEEMLELLNQNHTPVSKATLYRYLDMLVSQNAVRKFIIDDQPSAGYQYL”, the figure is -2; as for “HMTKSTSMDLGGFMIVEGSETVRLGGQILQKDVDYTIDYFSGKINFISEEALNPGAEISVSYEENQ”, -0.225; as for “HMTKTEFLEALRRALNGNMAAASVEDNLKFYENYFYSEEAKGRSEAAVLSELGDPRILARTLIDAAER”, 0.154.
The result for “HMTKTEFLNLLEQRLFVLNDNERADLLSEYKQHIEMKIQSGLSEEEAIADFGDPEELIKELLEAY” reads -0.956; that for “HMTKTFDSPEDADNDVLAKTLFQIFGVQSVYLKENFVTITKSNSVGWHTLMEKTGHTLEEHLKF”, 0.0905.
As for “HMTKTKFLSKDMILSAMSRTKSNRAAARYLSVSFVHYKKYAREYKDETSGVSLWEKHKNQSGTGIPK”, the figure is -2.11.
“HMTKTSQEDEDIMRHLDELHTRWPFLGQRKLIEELKDQGIQIGRKRLRRLMKVMGIEAIAPK”: the “soluble fraction (log2)” value is -2.12.
As for “HMTKVMVPNVVGMSRGEAEEALRGVKLQVDLKREVSDDPEVKPEEVLRQTPDAQTSVPQGSVVTLYVADKP”, the figure is 0.0285.
As for “HMTKYEKKIFEIVNASRDHLTAEQVLAALREEYPAVSQATVYNNLKKLTSDGLLRKLTLADSPDRYD”, the figure is -0.202; as for “HMTLAAATESREYLADLARRLDAADHGDKTRIKAEAAGLLGWSMATLHARLARDVGWTSGRK”, -0.241; as for “HMTLDEFTDLMNLFKTGHIEQKPVILYGYNYWTSLKSWFEFNNMKFPEMYIDGIINTVDEFKILYNKIF”, -1.38.
Turning to “HMTLGPKQMGEAIIKNLKEKTGKSLEEWSQRILIHELTDKKEIIDFLKNDNGLGHFQALKIFEHLNGK”, the “soluble fraction (log2)” value is -0.281.
As for “HMTLGQHIQALRKEAGYSQEALGEALGVTRQSISKWESDQAIPEVDKLVTLSRLFQVPVGVLLQVEQP”, the figure is -0.348.
As to “HMTLGSVRTVRQVLDDGRLLVADSGGNVTLVRRAGTLAKENVNTGDRVSVDSSVRFALTLIPV”, the “soluble fraction (log2)” value was -0.931.
The result for “HMTLPEKSKRLFSQDDFWDQIFYRIGEGQSLREVSKYYKIPYTTIHDRIHSDEGIKLKYLEALTS” reads -0.882; that for “HMTLPQEPTVLPRPLRVGDTVHIRTLDKDAEVLALPDARGMVAVRAGIINTKVKLTDLTLVEEK”, -0.0272.
For the sequence “HMTLRDRDQALEELWGQLADVPMDSETERLLEPFMGWGVGVSRDEIWHWFDRRHSKGIGHLLYS”, the “soluble fraction (log2)” value was -1.42.
As for “HMTLSENEKIIVDTIMKYQPLHIDVLNQQVKVDFYTLLGLLTKLEMEGIVLKNPGNIYKINTL”, the figure is -0.378; as for “HMTLTPEQQAARRSEIVDIALRLIAENGFQKTSMREIADLAKMGKSSLYDFFKTKDEIAVYAMEKK”, -0.714.
As to “HMTMEFGEFLAKLRKERGYYQKEVAAYLNVTVATISNYEKNVHAPDLDTLVKLADFYDVSTDYLLQRT”, the “soluble fraction (log2)” value is -2.7.
